# Measurements as given in patent publication US20240190987A1, “Engineered EpCam Binding Antibodies” (TigaTX, priority 2021, published 2024).
# Where a chain is given by its changes, count along the chain named.
# B1: Ab1071 (Fab, V domains shown)
# VH: EVQLVESGGGLVQPGGSLRLSCAASGFDFSSYSIHWVRQAPGKGLEWVASISPYYGSTYYADSVKGRFTISADTSKNTAYLQMNSLRAEDTAVYYCARYYEWYKYDLYAGSLGFDYWGQGTLVTVSS
# VL: DIQMTQSPSSLSASVGDRVTITCRASQSVSSAVAWYQQKPGKAPKLLIYSASSLYSGVPSRFSGSRSGTDFTLTISSLQPEDFATYYCQQGGYSLITFGQGTKVEIK
# B2: Ab1044 (antibody, V domains shown)
# VH: B1 VH with S50A
# VL: B1 VL
# B3: Ab1047 (antibody, V domains shown)
# VH: B1 VH with S50A, Y59A, Y99A
# VL: B1 VL
# B4: Ab0785 (Fab, V domains shown)
# VH: QVQLVQSGAEVKKPGASVKVSCKASGYTFTSYWMHWVRQHPGQGLEWMGIIHPNSGGTSYAQKFQGRVTMTRDTSTSTVYMELSSLRSEDTAVYYCAMGDYVSRDYWGQGTLVTVSS
# VL: EIVLTQSPGTLSLSPGERATLSCRASSSVSSSYLHWYQQKPGQAPRLLIYSTSSRATGIPDRFSGSGSGTDFTLTISRLEPEDFAVYYCQQYSGYQFTFGQGTKLEIK
# modifications: chain 1 pos 246: the Lys of the Avi-tag is biotinylated where biotinylated-Ab0785 was captured on streptavidin sensors; written K
# B5: Ab0788 (Fab, V domains shown)
# VH: B4 VH with S59N
# VL: B4 VL
# B6: Ab1019 (antibody, V domains shown)
# VH: EVQLVESGGGLVQPGGSLRLSCAASGFTFSNYWMNWVRQAPGKGLEWVAQIRVKSENFATHYADSVKGRFTISRDDSKSTVYLQMNSLRAEDTAVYYCTLYDAFSWGQGTLVTVSS
# VL: DIQMTQSPSSLSASVGDRVTITCSASSSVSSGNFHWYQQKPGKAPKLLIYRTSNLASGVPSRFSGSGSGTDYTLTISSLQPEDFATYYCQQWSGYPYTFGQGTKVEIK
# B7: Ab1024 (antibody, V domains shown)
# VH: B6 VH with A63V, A103G
# VL: B6 VL
# B8: Ab0637 (antibody, V domains shown)
# VH: B1 VH with D106S, A109L
# VL: B1 VL
# B9: Ab0706 (antibody, V domains shown)
# VH: B1 VH with D106S, Y108N, A109L
# VL: B1 VL
# B10: Ab0707 (antibody, V domains shown)
# VH: B1 VH with D106S, Y108D, A109L
# VL: B1 VL
# What was measured:
# Ab0785 = experiment: BLI +indinavir
# Ab0787 [1] = experiment: BLI 5-pt +indinavir
# Ab0786 [2] = experiment: BLI 5-pt +indinavir
# Ab0787 [3] = experiment: BLI 1-pt +indinavir
# Ab0786 [4] = experiment: BLI 1-pt +indinavir
# Ab0670 = experiment: 5-pt kinetics
# [5] = target: cyEpCAM ECD Ag0066 (cyno); experiment: SPR single-cycle
# [6] = target: T1, huEpCAM ECD Ag0065 (human) (UniProt P16422); experiment: SPR single-cycle
# T1 sequence: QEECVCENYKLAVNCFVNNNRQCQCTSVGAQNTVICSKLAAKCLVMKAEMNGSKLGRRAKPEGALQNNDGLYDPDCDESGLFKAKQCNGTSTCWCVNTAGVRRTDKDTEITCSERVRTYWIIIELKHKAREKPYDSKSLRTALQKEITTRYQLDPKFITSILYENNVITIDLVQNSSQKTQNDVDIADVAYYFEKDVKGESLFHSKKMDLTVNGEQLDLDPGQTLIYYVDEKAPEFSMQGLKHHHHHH
# [7] = target: cyEpCAM ECD Ag0066 (cyno); experiment: SPR multi-cycle
# [8] = target: T1, huEpCAM ECD Ag0065 (human); experiment: SPR multi-cycle
# Ab0223 [9] = experiment: BLI 5-pt +indinavir
# Ab0223 [10] = experiment: BLI 3-pt +indinavir
# Ab0223 [11] = experiment: BLI 5-pt +indinavir; remark: listed apart in the source
binder,measurement,setting,value
B1,Kd,Ab0785,2.4 nM
B2,Kd,Ab0787 [1],2.3 nM
same,Kd,Ab0786 [2],8.6 nM
same,Kd,Ab0787 [3],5.1 nM
same,Kd,Ab0786 [4],8.2 nM
B3,Kd,Ab0787 [3],47 nM
B4,Kd,Ab0670,29 nM
B5,Kd,Ab0670,86 nM
B6,Kd,[5],2 nM
same,Kd,[6],2.5 nM
same,Kd,[7],1.1 nM
same,Kd,[8],1.8 nM
B7,Kd,[5],2 nM
same,Kd,[6],2.3 nM
same,Kd,[7],0.94 nM
same,Kd,[8],1.6 nM
B8,Kd,Ab0223 [9],5.9 nM
same,Kd,Ab0223 [10],5.4 nM
same,Kd,Ab0223 [11],3.7 nM
B9,Kd,Ab0223 [10],89 nM
B10,Kd,Ab0223 [10],72 nM
